Measured values: patent US20220170006A1, “A PSEUDO-RANDOM DNA EDITOR FOR EFFICIENT AND CONTINUOUS NUCLEOTIDE DIVERSIFICATION IN HUMAN CELLS” (THE BROAD INSTITUTE, INC., priority 2019, published 2022)

Assays:
[1] = tested on: 2000-bp window downstream of a T7 promoter on pTarget in HEK293T cells; assay: Mutation rates in the 2000-bp window of the pTarget plasmid by high-throughput sequencing; format: cell-based, human; conditions: cytidine deaminase only
Protocol: (§1) HEK293T cells were obtained from ATCC and were grown in high-glucose (4.5 g/L) DMEM supplemented with GlutaMAX™, 1 mM sodium pyruvate, 10% FBS, 100 units/mL of penicillin and 100 μg/mL of streptomycin in a humidified chamber with 5% CO2 at 37° C. Cells were maintained at ˜80% confluence in 24-well plates on the day of transfection. 250 ng of pTarget and 250 ng of pEditor plasmids were mixed together with 1 μl of TransIT-X2 reagent (Mirus) and the mixture was incubated in 50 μl of Opti-MEM® (Thermo Fisher Scientific™) for 30 min. The mixture was then added drop-wise to each well. […]
To sequence the targeted region (˜2000 bp) on pTarget, plasmids were extracted from ˜1 million cells using Qiaprep Spin Miniprep Kit. PCR was performed using those plasmids as templates (primer sequences are shown in Table 2 above. Ampure® XP beads (Beckman Coulter™) were added to samples at a 0.8:1 ratio to size select for the pcr'ed fragments. The concentration of each sample was measured by Qubit™ (Thermo Fisher Scientific™). 1 ng of DNA at a volume of 2.5 μl from each sample was used as input for the subsequent library preparation. Sequencing library was prepared following the Nextera® XT Kit protocol (Illumina®) except that half the amount of each reagent was used. To sequence the targeted loci, genomic DNA was extracted from ˜1 million cells using the Quick-DNA™ Kit (Zymo Research™). […]

[2] = tested on: EGFP gene solely under the control of a T7 promoter (pTarget) in HEK293T cells; assay: EGFP expression from pTarget driven by pEditor variants (T7 RNAP transcriptional activity); format: cell-based, human; conditions: HEK293T cells co-transfected with pTarget and pEditor variant; listed as pAPOEBC
Protocol: Each pEditor variant was introduced into HEK293T cells together with pTarget in which EGFP gene was solely under the control of a T7 promoter. […] Scale bar, 200 μm, which also applies to other micrographs. […] Cells transfected with pTarget and pEditor plasmids were incubated for 3 days before being harvested. pTarget plasmids were extracted and PCR reactions were performed to amplify the target region. Sequencing libraries were prepared using the PCR products and next-generation sequencing was performed. Mutation rates in each group, across different pEditor variants, were calculated.
as §1
To test whether fusing a cytidine deaminase to T7 RNAP maintained T7 RNAP activity, pTarget and various pEditor plasmids were transfected into HEK 293T cells and EGFP fluorescence under each condition was measured.

B1: pAPOBEC: control plasmid expressing deaminase alone (rat APOBEC1) (protein, UniProt P38483 1-229, looked up)
C->U-editing enzyme APOBEC-1: MSSETGPVAVDPTLRRRIEPHEFEVFFDPRELRKETCLLYEINWGGRHSIWRHTSQNTNKHVEVNFIEKFTTERYFCPNTRCSITWFLSWSPCGECSRAITEFLSRYPHVTLFIYIARLYHHADPRNRQGLRDLISSGVTIQIMTEQESGYCWRNFVNYSPSNEAHWPRYPHLWVRLYVLELYCIILGLPPCLNILRRKQPQLTFFTIALQSCHYQRLPPHILWATGLK
**Q.** For B1, which “C->T and G->A mutation rates compared with background (pT7) error rates” value [1] is on record?
**A.** not statistically different from the background error rates

**Q.** And the “EGFP expression / EGFP signals” value [2]?
**A.** not
